{"source": "patent US20130078247A1", "about": "(Boehringer Ingelheim, published 2013)", "key": {"[1]": {"molecular_target": "T1, recombinant human DLL4 extracellular domain, C-terminally His-tagged (R&D Systems) (human, UniProt Q9NR61 25-522, biotinylated in the competition assays (sites not given))", "T1 construct": "also called rhDLL4; hDLL4; not shown: C-terminal His tag", "assay": "periplasmic extract; Biacore off-rate"}, "[2]": {"molecular_target": "T1, recombinant human DLL4 extracellular …", "assay": "periplasmic extract; hDLL4 ELISA"}, "[3]": {"molecular_target": "T1, recombinant human DLL4 extracellular …", "assay": "periplasmic extract; hDLL4/hNotch1 AlphaScreen", "protocol": "To this mixture, the acceptor beads and the streptavidin donor beads are added and further incubated for 1 hour at room temperature. Fluorescence is measured by reading plates on the Envision Multilabel Plate reader (Perkin Elmer, Waltham, Mass., USA) using an excitation wavelength of 680 nm and an emission wavelength of 520 nm."}, "[4]": {"molecular_target": "T2, recombinant human DLL1 (Alexis) (human, UniProt O00548 18-545, limits assumed)", "T2 construct": "also called hDLL1; rhDLL1", "T2 sequence (looked up)": "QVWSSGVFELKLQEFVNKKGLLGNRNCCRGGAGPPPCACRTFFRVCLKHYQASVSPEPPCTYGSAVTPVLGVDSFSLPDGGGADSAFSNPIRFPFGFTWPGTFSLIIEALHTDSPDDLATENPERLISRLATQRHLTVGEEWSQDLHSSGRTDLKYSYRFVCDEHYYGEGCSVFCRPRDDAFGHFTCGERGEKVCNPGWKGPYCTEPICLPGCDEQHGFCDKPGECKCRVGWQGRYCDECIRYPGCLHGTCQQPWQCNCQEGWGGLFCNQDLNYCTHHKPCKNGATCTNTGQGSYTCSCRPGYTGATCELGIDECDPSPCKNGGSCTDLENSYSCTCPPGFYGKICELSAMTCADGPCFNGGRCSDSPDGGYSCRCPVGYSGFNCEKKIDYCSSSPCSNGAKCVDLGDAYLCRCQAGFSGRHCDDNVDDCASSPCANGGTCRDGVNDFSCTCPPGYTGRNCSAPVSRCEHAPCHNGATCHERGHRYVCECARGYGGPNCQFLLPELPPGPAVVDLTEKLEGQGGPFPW", "assay": "rhDLL1/rhJAG1 binding ELISA"}, "[5]": {"molecular_target": "T3, recombinant human Jagged-1 (Alexis) (human, UniProt P78504 34-1067, limits assumed)", "T3 construct": "also called hJagged-1; hJAG1", "assay": "rhDLL1/rhJAG1 binding ELISA"}, "[6]": {"molecular_target": "T4, recombinant mouse DLL4 extracellular domain, C-terminally His-tagged (R&D Systems) (mouse, UniProt Q9JI71 27-525)", "T4 construct": "range 1-525; also called rmDLL4; mDLL4; not shown: C-terminal His tag", "T4 sequence (Q9JI71 27-525 limits assumed)": "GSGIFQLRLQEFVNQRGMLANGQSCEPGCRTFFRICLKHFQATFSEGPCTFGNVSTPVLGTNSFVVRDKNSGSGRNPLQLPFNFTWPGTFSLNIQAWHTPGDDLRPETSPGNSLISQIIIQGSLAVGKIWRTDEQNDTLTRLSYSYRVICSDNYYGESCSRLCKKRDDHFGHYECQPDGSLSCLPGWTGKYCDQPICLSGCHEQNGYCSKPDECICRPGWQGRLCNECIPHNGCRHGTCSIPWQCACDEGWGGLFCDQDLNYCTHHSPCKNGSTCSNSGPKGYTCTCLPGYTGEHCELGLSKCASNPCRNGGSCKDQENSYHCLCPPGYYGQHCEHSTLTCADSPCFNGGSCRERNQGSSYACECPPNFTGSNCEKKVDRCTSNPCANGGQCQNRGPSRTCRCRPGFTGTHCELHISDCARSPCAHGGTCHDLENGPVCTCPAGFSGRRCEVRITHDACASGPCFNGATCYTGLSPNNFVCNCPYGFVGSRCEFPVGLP", "assay": "binding ELISA on coated rmDLL4", "protocol": "In order to determine cross-reactivity to mouse DII4 a binding ELISA is performed. […] Wells are blocked with a casein solution (1% in PBS). VHHs are applied as dilution series and binding is detected using a mouse anti-myc (Roche) and an anti-mouse-AP conjugate (Sigma, St Louis, Mo., USA) (FIG. 7)."}, "[7]": {"molecular_target": "T5, cynomolgus DLL4, full length, overexpressed on cells (cynomolgus, UniProt Q9NR61 27-685 (human entry))", "T5 construct": "also called CHO-cDLL4; cDLL4", "T5 chain": "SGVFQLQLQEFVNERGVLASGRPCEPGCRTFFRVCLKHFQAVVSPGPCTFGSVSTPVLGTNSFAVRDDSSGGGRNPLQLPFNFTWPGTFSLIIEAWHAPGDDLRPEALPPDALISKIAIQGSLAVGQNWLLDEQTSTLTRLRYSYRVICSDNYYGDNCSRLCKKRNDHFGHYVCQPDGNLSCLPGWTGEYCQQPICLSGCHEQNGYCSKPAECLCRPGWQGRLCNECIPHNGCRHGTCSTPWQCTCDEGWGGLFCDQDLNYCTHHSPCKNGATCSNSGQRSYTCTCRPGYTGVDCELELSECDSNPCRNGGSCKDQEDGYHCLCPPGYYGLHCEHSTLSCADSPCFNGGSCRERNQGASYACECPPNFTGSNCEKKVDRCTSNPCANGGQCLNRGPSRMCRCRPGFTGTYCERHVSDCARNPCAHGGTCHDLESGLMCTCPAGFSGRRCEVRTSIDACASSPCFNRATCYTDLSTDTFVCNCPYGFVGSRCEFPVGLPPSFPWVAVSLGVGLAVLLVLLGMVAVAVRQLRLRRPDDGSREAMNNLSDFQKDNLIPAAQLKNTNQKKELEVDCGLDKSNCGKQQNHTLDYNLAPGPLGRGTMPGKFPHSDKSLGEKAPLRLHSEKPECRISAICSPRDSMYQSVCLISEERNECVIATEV", "assay": "FACS titration on HEK293-cDLL4 cells", "protocol": "In order to determine the cynomologus cross-reactivity of the VHHs, a FACS binding experiment is performed. Cynomolgus DII4 expressing HEK293 cells (transient or stable transfection) are used for a titration binding experiment of the VHHs. After a 30 minutes incubation on ice, all samples are washed and detection is performed by applying anti-c-myc-Alexa647 (Santa Cruz Biotechnology, Santa Cruz, Calif., USA). Human and mouse DII4 overexpressing HEK293 cells are taken as reference. The mean MCF value is determined on the FACS Array and used for calculation of the EC₅₀ value (see FIG. 9)."}, "[8]": {"molecular_target": "T1, recombinant human DLL4 extracellular …", "assay": "cell-based or functional assay"}, "[9]": {"molecular_target": "T6, mouse DLL4, full length, overexpressed on CHO or HEK293 cells (mouse, UniProt Q9JI71 27-686)", "T6 construct": "whole, on cells; also called CHO-mDLL4; CHO-mDII4", "assay": "periplasmic extract; FMAT, Notch1/Fc on CHO-mDLL4", "excerpt": "(§1) All calculations are based on the FL1_total signal which comprises the average of the fluorescence per well times the number of counts per well."}, "[10]": {"molecular_target": "T7, human DLL4, full length, overexpressed on CHO or HEK293 cells (human, UniProt Q9NR61 27-685)", "T7 construct": "also called CHO-hDLL4; CHO-hDII4", "assay": "periplasmic extract; FMAT, Notch1/Fc on CHO-hDLL4", "excerpt": "as §1"}, "[11]": {"molecular_target": "T7, human DLL4, full length, overexpressed …", "assay": "cell-based or functional assay"}, "[12]": {"molecular_target": "T6, mouse DLL4, full length, overexpressed …", "assay": "FMAT competition: labelled hNotch1-Fc on CHO-mDLL4 cells", "excerpt": "as §1"}, "human Ang2 [13]": {"molecular_target": "T8, human Ang2 (human, UniProt O15123 19-496, limits assumed)", "T8 construct": "also called hAng2; human Angiopoietin2", "T8 sequence (looked up)": "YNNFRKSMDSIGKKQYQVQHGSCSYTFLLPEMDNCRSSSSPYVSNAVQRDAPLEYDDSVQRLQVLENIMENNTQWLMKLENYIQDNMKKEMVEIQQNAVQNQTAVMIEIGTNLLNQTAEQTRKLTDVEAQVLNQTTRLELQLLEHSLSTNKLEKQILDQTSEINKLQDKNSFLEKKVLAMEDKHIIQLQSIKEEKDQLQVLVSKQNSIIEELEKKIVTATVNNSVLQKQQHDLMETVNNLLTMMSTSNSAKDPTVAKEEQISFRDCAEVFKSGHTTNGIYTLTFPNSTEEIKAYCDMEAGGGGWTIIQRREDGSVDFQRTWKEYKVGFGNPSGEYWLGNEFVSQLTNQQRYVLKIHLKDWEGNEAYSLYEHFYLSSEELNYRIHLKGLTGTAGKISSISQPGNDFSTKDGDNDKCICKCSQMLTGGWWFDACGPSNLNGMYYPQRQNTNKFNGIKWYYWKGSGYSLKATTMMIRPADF", "assay": "competition ELISA hAng2/hTie2-Fc, with 0.5 uM HSA [continued]", "protocol": "(§2) This assay is also performed after incubation of the VHH with 0.5 μM human serum albumin."}, "human Ang2 [14]": {"molecular_target": "T8, human Ang2", "assay": "competition ELISA hAng2/hTie2-Fc", "protocol": "as §2"}}}
{"binder": "DLLBII17C01 (VHH, also called DLLBII17C1; not shown: C-terminal c-myc and His6 tags) VHH: EVQLVESGGGLVQAGGSLRLSCAASGFTFDDYPIGWLRQAPGKEREGVSCISSSDDSTYYADSVKGRFTISSNNAKNTVYLQMNSLKPEDTAVYYCAVRLFSGGCAVVAGTSWADFGSSGQGTQVTVSS", "values": [{"measurement": "koff", "setting": "[1]", "result": 0.00056, "unit": "s⁻¹"}, {"measurement": "% inhibition", "setting": "[2]", "result": 82, "unit": "%"}, {"measurement": "% inhibition", "setting": "[3]", "result": 84, "unit": "%"}]}
{"binder": "DLLBII133G05 (VHH, not shown: C-terminal c-myc and His6 tags) VHH: EVQLVESGGGLVQPGGSLRLSCAASGFTFGSYDMSWVRRSPGKGPEWVSAINSGGGSTYYTDYVKGRFTISRDNAKNTLYLQMNSLKPEDTAVYYCAADRYIWARQGEYWGAYAYDYWGQGTQVTVSS", "values": [{"measurement": "binding result", "setting": "[4]", "result": "no binding"}, {"measurement": "binding result", "setting": "[5]", "result": "no binding"}, {"measurement": "EC50 (read off the curve)", "setting": "[6]", "result": "~0.5", "unit": "nM"}]}
{"binder": "DLLBII17G10 (VHH, not shown: C-terminal c-myc and His6 tags) VHH: EVQLVESGGGLVQAGGSLRLSCAASGSTFSSYAMGWYRHQAPGKQRELVAAISSDGSTHYADSVKGRFTISRDNAKNTMYLQMNSLKPEDTAVYYCNTKTFGSNWYDDYWGQGTQVTVSS", "values": [{"measurement": "koff", "setting": "[1]", "result": 0.0015, "unit": "s⁻¹"}, {"measurement": "% inhibition", "setting": "[2]", "result": 93, "unit": "%"}, {"measurement": "% inhibition", "setting": "[3]", "result": 82, "unit": "%"}]}
{"binder": "DLLBII19D10 (VHH, not shown: C-terminal c-myc and His6 tags) VHH: EVQLVESGGGLVQAGDSLRLSCAASGRTVGSYDMSWVRQGPGKEREWVSSINSGVGKTYYADSVKGRFTIFRDNAKNMVYLQMNNLKPEDTAVYYCATEMDGSRYVEGQGTQVTVSS", "values": [{"measurement": "koff", "setting": "[1]", "result": 0.0013, "unit": "s⁻¹"}, {"measurement": "% inhibition", "setting": "[2]", "result": 98, "unit": "%"}, {"measurement": "% inhibition", "setting": "[3]", "result": 85, "unit": "%"}]}
{"binder": "DLLBII101G08 (VHH, also called 101G8; DLLBII101G8; not shown: C-terminal c-myc and His6 tags) VHH: EVQLVESGGGLVQAGGSLRLSCAASGRTFSSYAMAWFRQAPGKEREFVAAIRWSGGTAYYADSVQGRFTISRDNAKNTVYLQMNSLKPEDTAVYYCANRAADTRLGPYEYDYWGQGTQVTVSS", "values": [{"measurement": "EC50 (read off the curve)", "setting": "[7]", "result": "~8", "unit": "nM"}, {"measurement": "concentration giving complete inhibition, HUVEC proliferation assay", "setting": "[8]", "result": 10, "unit": "µM"}, {"measurement": "% inhibition", "setting": "[9]", "result": 92, "unit": "%"}, {"measurement": "% inhibition", "setting": "[10]", "result": 91, "unit": "%"}, {"measurement": "IC50, DLL4/Notch1 reporter assay (luciferase; co-culture with HEK293-hDII4)", "setting": "[11]", "result": 2760, "unit": "nM"}]}
{"binder": "DLLBII17F10 (VHH, not shown: C-terminal c-myc and His6 tags) VHH: EVQLVESGGGLVQAGGSLRLSCASSGRTLLNYAMGWFRQAPGKEREFVSGINWSGGSTYYADSVKGRFTISRDNAENTVYLHMNSLKPEDTAVYYCAAAHDNYWFTDDSLGRGLKYWGQGTQVTVSS", "values": [{"measurement": "% inhibition", "setting": "[2]", "result": 98, "unit": "%"}, {"measurement": "binding result", "setting": "[6]", "result": "no binding (tested: 2.5e-7 M)"}, {"measurement": "% inhibition", "setting": "[3]", "result": 88, "unit": "%"}]}
{"binder": "78B04 (VHH, also called DLLBII78B04) VHH: EVQLVESGGGLVQAGGSLRLSCAASGRTFSNYIMGWFRQAPGKEREFVAGISRYGDYTYYADSVKGRFTISRDNVKNTVYLRMNSLKPDDTAVYYCAANEGYCSGYGCYEDSGQYDYWGQGTQVTVSS", "values": [{"measurement": "binding result", "setting": "[12]", "result": "binds"}]}
{"binder": "00042 (VHH) VHH: EVQLVESGGGLVQPGGSLRLSCAASGFTLDDYAIGWFRQAPGKEREGVSSIRDNDGSTYYADSVKGRFTISSDNSKNTVYLQMNSLRPEDTAVYYCAAVPAGRLRFGEQWYPLYEYDAWGQGTLVTVSS", "values": [{"measurement": "IC50 (read off the curve)", "setting": "human Ang2 [13]", "result": "~0.6", "unit": "nM"}, {"measurement": "IC50 (read off the curve)", "setting": "human Ang2 [14]", "result": "~0.6", "unit": "nM"}]}
{"binder": "00045 (VHH) VHH: EVQLVESGGGLVQPGGSLRLSCAASGFALDYYAIGWFRQAPGKEREGVSCISSSDGITYYADSVKGRFTISRDNSKNTVYLQMNSLRPEDTAVYYCATDSGGYIDYDCMGLGYDYWGQGTLVTVSS", "values": [{"measurement": "IC50 (read off the curve)", "setting": "human Ang2 [14]", "result": "~0.1", "unit": "nM"}]}
{"binder": "DLLBII55D12 (VHH, not shown: C-terminal c-myc and His6 tags) VHH: EVQLVESGGGLVQPGGSLRLSCAASGFTFDDYAIGWFRQAPGKEPEGISCISSSGGITYYADSVKGRFTISRDNAKNTVYLQMNSLKPEDTAVYYCATPGIAACRGIHYTGQGTQVTVSS", "values": [{"measurement": "binding result", "setting": "[7]", "result": "binds"}]}
